# Test results from paper PMC7572642 (Journal of molecular biology, 2020).
# B1: chicken cone PDE6 GAFab regulatory domain (residues 42–458 of the chicken cone PDE6C catalytic subunit) (domain or fragment, UniProt P52731 42-458, looked up)
# chain: GDVKEGVSFKDMSRLEECNILFELLTEIQDEAGSMEKIVHKTLQRLSQLLAADRCSMFICRSRNGIPEVATRLLNVTPTSKFEDNLVNPDKETVFPLDIGIAGWVAHTKKFFNIPDVKKNNHFSDYLDKKTGYTTVNMMAIPITQGKEVLAVVMALNKLNASEFSKEDEEVFKKYLNFISLVLRNHHTSYLYNIESRRSQMLLWSANKVFEELTDIERQFHKALYTIRMYLNCERYSVGLLDMTKEKEFYDEWPIRLGEAEPYKGPKTPDGREVNFYKIIDYILHGKEEIKVIPTPPADHWCLISGLPTYVAENGFICNMMNAPADEYFTFQKGPVDETGWVIKNVLSLPIVNKKEEIVGVATFYNRKDGKPFDEYDEQIIETLTQFLGWSVLNTDTYDKMNKLENRKDIAQEMLMY
# Target: the molecule itself
# Assay: crystal structure
protein,measurement,value
B1,binding result,binds
